Several values for one entry are separate records, joined by “and”; a condition that tells them apart may be missing. Equal values may be shown once. Read-outs that look alike come from different tables or passages of the source.

The target of one data set is Arc (Arg3.1) (UniProt Q63053). As to the kind of experiment: dynamic light scattering of oligomer size. The conditions noted are these: reference: wild type; sites T278.
Data set [1] addresses full-length ArcG277D (rat) (UniProt Q63053). As to the kind of experiment: dynamic light scattering.
For data set [2], the target named is full-length ArcK257A (rat) (UniProt Q63053). As to the kind of experiment: dynamic light scattering.
Data set [3] has as its target full-length ArcQ241A (rat) (UniProt Q63053). As to the kind of experiment: dynamic light scattering.
Data set [4] concerns the target full-length ArcS260D (rat) (UniProt Q63053). As to the kind of experiment: dynamic light scattering.
For data set [5], the target named is full-length ArcS260D,T278A (rat) (UniProt Q63053). As to the kind of experiment: dynamic light scattering.
Data set [6] addresses full-length ArcS260D,T278D (rat) (UniProt Q63053). As to the kind of experiment: dynamic light scattering.
Data set [7] concerns the molecule itself. In words: dynamic light scattering.
Data set [8] deals with the molecule itself. In words: dynamic light scattering. The source holds these as a separate data set.

As for “Arc (Arg3.1) (from UniProt Q63053) T278D”, the “other: oligomer mass from DLS after 6 min at 30°C” value with Arc (Arg3.1) is recorded as “weaker; reference ~2458”.
For “full-length ArcG277D (from UniProt Q63053 1-396) (natural protein)”, the stoichiometry N – broadly, the number of molecules, sites or subunits per partner or assembly – in data set [1] came to 4.
In [2], “full-length ArcK257A (from UniProt Q63053 1-396) (natural protein)” gave a stoichiometry N of 4.
On to “full-length ArcQ241A (from UniProt Q63053 1-396) (natural protein)”, for which, in [3], the stoichiometry N was determined as 4.
“full-length ArcS260D (from UniProt Q63053 1-396) (natural protein)”: the stoichiometry N in [4] was determined as 4.
As for “full-length ArcS260D,T278A (from UniProt Q63053 1-396) (natural protein)”, in data set [5], the stoichiometry N turned out to be 4.
For the molecule “full-length ArcS260D,T278D (from UniProt Q63053 1-396) (natural protein)”, the stoichiometry N in [6] came to 4.

B1: full-length Rn Arc (wild type) (natural protein, rat, UniProt Q63053 1-396, looked up)
chain: MELDHMTTGGLHAYPAPRGGPAAKPNVILQIGKCRAEMLEHVRRTHRHLLTEVSKQVERELKGLHRSVGKLENNLDGYVPTGDSQRWKKSIKACLCRCQETIANLERWVKREMHVWREVFYRLERWADRLESMGGKYPVGSEPARHTVSVGVGGPEPYCQEADGYDYTVSPYAITPPPAAGELPEQESVGAQQYQSWVPGEDGQPSPGVDTQIFEDPREFLSHLEEYLRQVGGSEEYWLSQIQNHMNGPAKKWWEFKQGSVKNWVEFKKEFLQYSEGTLSREAIQRELDLPQKQGEPLDQFLWRKRDLYQTLYVDAEEEEIIQYVVGTLQPKFKRFLRHPLPKTLEQLIQRGMEVQDGLEQAAEPSVTPLPTEDETEALTPALTSESVASDRTQPE
As to B1, the “stoichiometry N” value in the data set “dynamic light scattering [7]” was 4; in the data set “dynamic light scattering [8]” it was ~32 and ~48.

B2: full-length ArcS260A,T278A (natural protein, rat, UniProt Q63053 1-396, looked up)
chain: MELDHMTTGGLHAYPAPRGGPAAKPNVILQIGKCRAEMLEHVRRTHRHLLTEVSKQVERELKGLHRSVGKLENNLDGYVPTGDSQRWKKSIKACLCRCQETIANLERWVKREMHVWREVFYRLERWADRLESMGGKYPVGSEPARHTVSVGVGGPEPYCQEADGYDYTVSPYAITPPPAAGELPEQESVGAQQYQSWVPGEDGQPSPGVDTQIFEDPREFLSHLEEYLRQVGGSEEYWLSQIQNHMNGPAKKWWEFKQGAVKNWVEFKKEFLQYSEGALSREAIQRELDLPQKQGEPLDQFLWRKRDLYQTLYVDAEEEEIIQYVVGTLQPKFKRFLRHPLPKTLEQLIQRGMEVQDGLEQAAEPSVTPLPTEDETEALTPALTSESVASDRTQPE
As to B2, the binding result in the data set “dynamic light scattering [8]” is recorded as “binds”.

B3: full-length ArcS260A (natural protein, rat, UniProt Q63053 1-396, looked up)
chain: MELDHMTTGGLHAYPAPRGGPAAKPNVILQIGKCRAEMLEHVRRTHRHLLTEVSKQVERELKGLHRSVGKLENNLDGYVPTGDSQRWKKSIKACLCRCQETIANLERWVKREMHVWREVFYRLERWADRLESMGGKYPVGSEPARHTVSVGVGGPEPYCQEADGYDYTVSPYAITPPPAAGELPEQESVGAQQYQSWVPGEDGQPSPGVDTQIFEDPREFLSHLEEYLRQVGGSEEYWLSQIQNHMNGPAKKWWEFKQGAVKNWVEFKKEFLQYSEGTLSREAIQRELDLPQKQGEPLDQFLWRKRDLYQTLYVDAEEEEIIQYVVGTLQPKFKRFLRHPLPKTLEQLIQRGMEVQDGLEQAAEPSVTPLPTEDETEALTPALTSESVASDRTQPE
For B3, the binding result in “dynamic light scattering [8]” is on record as “binds”.

B4: full-length ArcT278D (natural protein, rat, UniProt Q63053 1-396, looked up)
chain: MELDHMTTGGLHAYPAPRGGPAAKPNVILQIGKCRAEMLEHVRRTHRHLLTEVSKQVERELKGLHRSVGKLENNLDGYVPTGDSQRWKKSIKACLCRCQETIANLERWVKREMHVWREVFYRLERWADRLESMGGKYPVGSEPARHTVSVGVGGPEPYCQEADGYDYTVSPYAITPPPAAGELPEQESVGAQQYQSWVPGEDGQPSPGVDTQIFEDPREFLSHLEEYLRQVGGSEEYWLSQIQNHMNGPAKKWWEFKQGSVKNWVEFKKEFLQYSEGDLSREAIQRELDLPQKQGEPLDQFLWRKRDLYQTLYVDAEEEEIIQYVVGTLQPKFKRFLRHPLPKTLEQLIQRGMEVQDGLEQAAEPSVTPLPTEDETEALTPALTSESVASDRTQPE
Take B4: the “stoichiometry N” value is 4 in “dynamic light scattering [7]” and about 24 in “dynamic light scattering [8]”.
